The values below are quoted from earlier work in PMC4467374.

Series [1] deals with histone H3 K9me3 peptide (Homo sapiens) (UniProt P68431).
Series [2] has as its target histone H3 K4me3/K9me3 peptide (Homo sapiens) (UniProt P68431).

UHRF1 TTD, sequence (Q96T88 124-285): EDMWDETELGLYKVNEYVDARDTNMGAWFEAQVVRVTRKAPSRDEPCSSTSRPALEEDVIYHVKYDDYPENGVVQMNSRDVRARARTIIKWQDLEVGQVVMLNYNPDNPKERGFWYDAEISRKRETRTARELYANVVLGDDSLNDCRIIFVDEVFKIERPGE

On to UHRF1 TTD (from UniProt Q96T88), for which the equilibrium dissociation constant (Kd) was 20 µM in series [1] and 90 µM in series [2].

By Kd is commonly meant the free concentration of one partner at which half of the binding sites on the other are occupied at equilibrium, for simple one-to-one binding.
